Experimental findings from patent US20150094271A1 (SAMSUNG ELECTRONICS, published 2015) are described below.

No end group written: not given here.

What is called EC50 (read off the curve) is the midpoint of the concentration-response curve. The low end stands for higher potency in that assay, the high end for lower potency in that assay. One may read the Kd as a measure of binding affinity in units of concentration.

B3: HDMXNTD (N-terminal domain of HDMX, amino acid residues 1 to 132 of NP-001191100) (other, human, UniProt O15151 1-132, looked up)
chain: MTSFSTSAQCSTSDSACRISPGQINQVRPKLPLLKILHAAGAQGEMFTVKEVMHYLGQYIMVKQLYDQQEQHMVYCGGDLLGELLGRQSFSVKDPSPLYDMLRKNLVTLATATTDAAQTLALAQDHSMDIPS
notes: range 1-132; also called HDM4
B5: HDM2NTD (N-terminal domain of HDM2, amino acids 1 to 125 of NP-002383) (other, human, UniProt Q00987 1-125, looked up)
chain: MCNTNMSVPTDGAVTTSQIPASEQETLVRPKPLLLKLLKSVGAQKDTYTMKEVLFYLGQYIMTKRLYDEKQQHIVYCSNDLLGDLFGVPSFSVKEHRKIYTMIYRNLVVVNQQESSDSGTSVSEN
notes: range 1-125

The target of experiment [1] is T1, GST (UniProt P08515 1-218 = GST).
T1 construct: Negative control in the pull-down; also called glutathione S-transferase tag alone (control)
T1 sequence (P08515 whole entry): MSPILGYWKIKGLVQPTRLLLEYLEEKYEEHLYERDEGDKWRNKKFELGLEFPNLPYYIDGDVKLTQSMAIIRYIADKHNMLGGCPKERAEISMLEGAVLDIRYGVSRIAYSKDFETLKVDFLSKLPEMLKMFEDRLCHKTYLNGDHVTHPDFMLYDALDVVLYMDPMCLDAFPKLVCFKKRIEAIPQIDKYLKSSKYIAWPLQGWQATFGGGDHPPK
Briefly: GST pull-down on glutathione resin, 12% SDS-PAGE of the eluate.

Experiment [2] has as its target T1, GST. Briefly: ELISA, HDMXNTD coated at 20 µg/ml, HRP anti-GST antibody, absorbance at 450 nm. Here is the method: (§1) HDM2 or HDMX was diluted to a concentration of 20 μg/ml in a coating buffer (pH 9.6; 0.05M carbonate-bicarbonate buffer, pH 9.6 (Sigma-Aldrich)), applied to 96-well plates (Nunc, Maxisorp) and incubated overnight at 4° C. Then, the plates were treated with 300 μl of 3% skim milk w/PBS-T (room temperature, 3 hrs) to block the binding of other proteins. The 96-well plates were washed with 200 μL of PBS-T before each well was treated with serial dilutions of 0, 50, 100, 200, 400, 800, 1200, 1600, 2400, 3200, 4800, and 6400 nM of GST-WT p53, GST-p53LZ1, GST-p53LZ2, GST, pDIQ, and pMI.
(§2) After one hour of incubation, the plates were washed three times with 300 μL of PBS-T, and incubated at room temperature for 1 hr with 100 μL of an HRP conjugated-anti-GST antibody (Abcam, 1:2000). Thereafter, treatment with TMB substrate (Pierce, 100 μL) for 5 min developed a color. A stop solution (Pierce, 100 μL) was added, followed by reading absorbance at 450 nm on microwell reader (Molecular Device, Model: 340PC384).
A general note: ELISA stands for enzyme-linked immunosorbent assay.

The target in a further experiment is T2, full-length HDM2 (human, UniProt Q00987 1-491).
T2 construct: mature
Kind of experiment: ELISA, full-length HDM2 coated at 20 µg/ml, HRP anti-GST antibody, absorbance at 450 nm. The method, then: as §1, §2

Experiment [3] has as its target B5. Briefly: ELISA, HDM2NTD coated at 20 µg/ml, HRP anti-GST antibody, absorbance at 450 nm. The method, then:
as §1, §2

The target in experiment [4] is B3. Briefly: ELISA, HDMXNTD coated at 20 µg/ml, HRP anti-GST antibody, absorbance at 450 nm. The method, then:
as §1, §2

Experiment [5] concerns the target T1, GST. Kind of experiment: ELISA, HDM2NTD coated at 20 µg/ml, HRP anti-GST antibody, absorbance at 450 nm. The method, then: as §1, §2
Experiment [6] deals with B5. Briefly: ITC, 0.5 mM p53LZ2 injected into 0.03 mM HDM2NTD, PBS pH 7.4, 18 °C. Here is the method:
Meanwhile, the binding of p53LZ2 to HDM2 and HDMX was evaluated by ITC (isothermal titration calorimetry).
(Isothermal titration calorimetry measures the heat released or taken up as one component is titrated into another.)

The target in experiment [7] is B3. Briefly: ITC, p53LZ2 with HDMXNTD.
The target in experiment [8] is B3. Kind of experiment: ITC (FIG. 6).

B1: His6-HDM2NTD (other, human)
chain: HHHHHHMCNTNMSVPTDGAVTTSQIPASEQETLVRPKPLLLKLLKSVGAQKDTYTMKEVLFYLGQYIMTKRLYDEKQQHIVYCSNDLLGDLFGVPSFSVKEHRKIYTMIYRNLVVVNQQESSDSGTSVSEN
notes: range 1-125; Tag placed N-terminally by its name only
For the molecule B1, the binding result with GST [1] is reported as “no binding”.

B2: His6-HDMXNTD (other, human)
chain: HHHHHHMTSFSTSAQCSTSDSACRISPGQINQVRPKLPLLKILHAAGAQGEMFTVKEVMHYLGQYIMVKQLYDQQEQHMVYCGGDLLGELLGRQSFSVKDPSPLYDMLRKNLVTLATATTDAAQTLALAQDHSMDIPS
notes: range 1-132; Tag placed N-terminally by its name only
Regarding B2, the binding result in the experiment with GST [1] is reported as “no binding”.
Consider B3, for which the binding result with GST [2] was “no binding (tested: 6400 nM)”.

B4: GST-p53LZ2 (leucine zipper variant p53LZ2, inventive, tagged with GST) (designed binder)
chain: RMKQLEDKVGELLFSNYWLELEVARLKKLV
modifications: not fully specified (N-terminus); also: parallel homodimer, GST junction linker letters not given here
notes: not shown: GST carrier (pGEX-4T3 vector) and its junction linker
As to B4, the “EC50 (read off the curve)” value with full-length HDM2 was roughly 300 nM; in [3], roughly 200 nM; in experiment [4], roughly 200 nM.
B5: the binding result with GST [5] is recorded as “no binding (tested: 6400 nM)”.
As to RMKQLEDKVGELLFSNYWLELEVARLKKLV (designed binder) [leucine zipper variant p53LZ2], in experiment [6], the “-TΔS” value turned out to be 1.48 kcal/mol, the dissociation constant Kd is 17.8 nM, the N came out at 0.65 and the ΔH is -11.8 kcal/mol. In [7], the “-TΔS” value was determined as 1.16 kcal/mol, the N was 0.65 and the ΔH was -9.66 kcal/mol. For the same molecule, the Kd in experiment [8] is roughly 80 nM.
